For one assay, the target named is rat albumin (rat, UniProt P02770 25-608). Kind of assay: phage ELISA. On the procedure: (§1) Phage ELISA—Phage clones (˜10¹¹ phage) were added to plates coated with rat, rabbit or human albumin. The microtiter plate was washed with wash buffer and bound phage were detected with HRP/Anti-M13 Conjugate. The amount of HRP bound was measured using ABTS/H₂O₂ substrate and monitoring the change at 405 nm.
On the technique in general: In an ELISA, binding on a coated surface is turned into a signal by an enzyme label.

The next assay addresses rabbit albumin (rabbit, UniProt P49065 25-608). Kind of assay: phage ELISA. On the procedure:
as §1

Where no end group is shown, it is not given here.

Chain of rabbit albumin (P49065 25-608 limits assumed): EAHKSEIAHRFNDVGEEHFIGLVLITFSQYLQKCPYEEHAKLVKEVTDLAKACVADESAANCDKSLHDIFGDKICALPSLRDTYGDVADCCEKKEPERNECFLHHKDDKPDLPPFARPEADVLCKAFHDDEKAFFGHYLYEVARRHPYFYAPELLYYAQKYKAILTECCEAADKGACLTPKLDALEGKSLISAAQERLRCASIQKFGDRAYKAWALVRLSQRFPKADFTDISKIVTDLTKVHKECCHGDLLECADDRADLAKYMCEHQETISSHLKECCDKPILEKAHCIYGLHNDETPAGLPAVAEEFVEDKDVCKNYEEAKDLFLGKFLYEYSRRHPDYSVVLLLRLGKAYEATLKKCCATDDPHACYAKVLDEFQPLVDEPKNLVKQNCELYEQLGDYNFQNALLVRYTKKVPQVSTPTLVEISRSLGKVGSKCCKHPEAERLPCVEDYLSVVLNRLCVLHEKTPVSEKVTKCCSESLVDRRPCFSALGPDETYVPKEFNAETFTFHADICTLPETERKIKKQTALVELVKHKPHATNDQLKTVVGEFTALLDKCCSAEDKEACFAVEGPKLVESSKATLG
Chain of rat albumin (P02770 25-608 limits assumed): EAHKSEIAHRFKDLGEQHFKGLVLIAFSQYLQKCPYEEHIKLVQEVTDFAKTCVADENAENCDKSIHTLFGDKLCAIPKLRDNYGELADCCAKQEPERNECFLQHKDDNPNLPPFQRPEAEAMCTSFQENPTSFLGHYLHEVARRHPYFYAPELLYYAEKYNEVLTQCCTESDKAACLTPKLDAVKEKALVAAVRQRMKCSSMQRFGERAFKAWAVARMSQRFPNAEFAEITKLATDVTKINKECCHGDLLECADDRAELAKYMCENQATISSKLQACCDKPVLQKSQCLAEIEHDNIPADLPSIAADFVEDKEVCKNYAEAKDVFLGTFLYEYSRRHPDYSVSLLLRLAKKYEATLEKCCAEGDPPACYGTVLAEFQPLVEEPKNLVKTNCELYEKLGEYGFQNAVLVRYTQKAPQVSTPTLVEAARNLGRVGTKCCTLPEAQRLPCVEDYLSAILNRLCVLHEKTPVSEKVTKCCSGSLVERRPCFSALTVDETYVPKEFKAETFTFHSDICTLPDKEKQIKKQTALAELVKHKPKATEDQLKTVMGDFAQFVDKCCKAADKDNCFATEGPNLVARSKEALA

Turning to QTELCYFPGICWNES (phage clone, Library HBC) [HBC-H13], the binding result with rat albumin and with rabbit albumin was “no binding” each time.

For the molecule SGAICYVPGICWTHA [HB-H7], the binding result in the assay with rat albumin and with rabbit albumin was “no binding” each time.

RGPDVCYWPSICFERSMP (not fully specified (bridges); cysteine pairing not given here, phage clone, Library HB) [HB-H6]: the binding result with rat albumin and in the assay with rabbit albumin was “no binding” each time.

As for GRSFCMDWPAHKSCTPLML (phage clone, Library HA) [HA-H83], the binding result with rat albumin and with rabbit albumin was “no binding” each time.

Regarding MEPSRSVCYAEGICFDRGEQ (phage clone, Library HB) [HB-H8], the binding result in the assay with rat albumin and with rabbit albumin was “no binding” each time.

In the case of EHDMCYFPGICWIAD (phage clone, Library HBC) [HBC-H6], the binding result with rat albumin and with rabbit albumin was “no binding” each time.

Take VQEVCYFPGICWMQE (phage clone, Library HBC) [HBC-H10]: the binding result with rat albumin and with rabbit albumin was “no binding” in each case.

Turning to TTEMCYFPGICWKTE (phage clone, Library HBC) [HBC-H14], the binding result with rat albumin and with rabbit albumin was “no binding” throughout.

Consider NDEICYFPGVCWKSG (phage clone, Library HBC) [HBC-H11], for which the binding result with rat albumin and in the assay with rabbit albumin was “no binding” in each case.

Consider RTAESLVCYWPGICFAQSER (phage clone, Library HB) [HB-H18], for which the binding result with rat albumin and in the assay with rabbit albumin was “no binding” in each case.

As to RDTVCYFPGICWMAS (phage clone, Library HBC) [HBC-H18], the binding result with rat albumin and in the assay with rabbit albumin was “no binding” in each case.

As to DMCYFPGICFN (phage clone, Library HC) [HC-H18], the binding result in the assay with rat albumin and in the assay with rabbit albumin was “no binding” throughout.

As to SREVCYYPGICWNGA (phage clone, Library HBC) [HBC-H2], the binding result with rat albumin and in the assay with rabbit albumin was “no binding” in each case.

On to GVRTFCQDWPAHNSCKLLRG (phage clone, Library HA) [HA-H73], for which the binding result in the assay with rat albumin and with rabbit albumin was “no binding” in each case.

Turning to ELCYFPGICWM (phage clone, Library HC) [HC-H20], the binding result in the assay with rat albumin and with rabbit albumin was “no binding” in each case.

As to EICYFPGICWI [HB-H12], the binding result in the assay with rat albumin and with rabbit albumin was “no binding” throughout.

As for ALCYFPGICWM (phage clone, Library HC) [HC-H14], the binding result in the assay with rat albumin and in the assay with rabbit albumin was “no binding” in each case.

For the molecule EVCYFPGICWF (phage clone, Library HC) [HC-H11], the binding result with rat albumin and with rabbit albumin was “no binding” in each case.

DVCYFPGICWM (phage clone, Library HC) [HC-H8]: the binding result with rat albumin and with rabbit albumin was “no binding” in each case.

Consider DLCYFPGICWM (phage clone, Library HC) [HC-H3], for which the binding result in the assay with rat albumin and with rabbit albumin was “no binding” throughout.

As for EVCYFPGICWM (phage clone, Library HC) [HC-H19], the binding result in the assay with rat albumin and with rabbit albumin was “no binding” each time.

With ELCYFPGICWP (phage clone, Library HC) [HC-H15], the binding result with rat albumin and in the assay with rabbit albumin was “no binding” each time.

In the case of KVCYFPGICWM (not fully specified (bridges); cysteine pairing not given here, phage clone, Library HC) [HC-H5], the binding result with rat albumin and in the assay with rabbit albumin was “no binding” each time.

Take EVCYFPGICWE (phage clone, Library HC) [HC-H16]: the binding result with rat albumin and with rabbit albumin was “no binding” each time.

EMCYFPGICWT (phage clone, Library HC) [HC-H9]: the binding result with rat albumin and in the assay with rabbit albumin was “no binding” throughout.

Regarding ELCYFPGICWT [HB-H13], the binding result with rat albumin and with rabbit albumin was “no binding” throughout.

As for EICYFPGICWM (phage clone, Library HC) [HC-H17], the binding result in the assay with rat albumin and in the assay with rabbit albumin was “no binding” each time.

Consider EMCYFPGICWS (phage clone, Library HC) [HC-H7], for which the binding result with rat albumin and with rabbit albumin was “no binding” in each case.

Consider KTCYFPGICWM (phage clone, Library HC) [HC-H10], for which the binding result with rat albumin and with rabbit albumin was “no binding” throughout.

For the molecule LVPERIVCYFESICYERSEL (phage clone, Library HB) [HB-H4], the binding result with rat albumin and with rabbit albumin was “no binding” in each case.

Regarding ASEICYFPGICWMVE (phage clone, Library HBC) [HBC-H12], the binding result in the assay with rat albumin and with rabbit albumin was “no binding” each time.

VRDMCYFPGICWKSE (phage clone, Library HBC) [HBC-H19]: the binding result with rat albumin and in the assay with rabbit albumin was “no binding” throughout.

On to DICYIPGICWM (phage clone, Library HC) [HC-H6], for which the binding result in the assay with rat albumin and with rabbit albumin was “no binding” in each case.

RAPERWVCYWEGICFDRYEQ (phage clone, Library HB) [HB-H1]: the binding result with rat albumin and with rabbit albumin was “no binding” throughout.

Take IVEMCYYPGICWISP [HB-H10]: the binding result with rat albumin and with rabbit albumin was “no binding” throughout.

For the molecule KTEICYFPGICWMSG (phage clone, Library HBC) [HBC-H15], the binding result in the assay with rat albumin and in the assay with rabbit albumin was “no binding” in each case.

For KLCYFPGICWS (phage clone, Library HC) [HC-H2], the binding result in the assay with rat albumin and in the assay with rabbit albumin was “no binding” in each case.

On to GGEICYFPGICRVLP (phage clone, Library HBC) [HBC-H4], for which the binding result with rat albumin and with rabbit albumin was “no binding” throughout.

In the case of GMCYFPGICWA (phage clone, Library HC) [HC-H4], the binding result in the assay with rat albumin and with rabbit albumin was “no binding” in each case.

As to RMPASLPCYWETICYESSEQ (phage clone, Library HB) [HB-H16], the binding result with rat albumin and with rabbit albumin was “no binding” in each case.

Take GTEVCYFPGICWGGG (phage clone, Library HBC) [HBC-H3]: the binding result in the assay with rat albumin and with rabbit albumin was “no binding” each time.

Turning to DMCYFPGICWL (phage clone, Library HC) [HC-H13], the binding result with rat albumin and with rabbit albumin was “no binding” each time.

QTRSFCADWPRHESCKPLRG (phage clone, Library HA) [HA-H76]: the binding result in the assay with rat albumin and with rabbit albumin was “no binding” throughout.

HAEICYFPGICWTER (phage clone, Library HBC) [HBC-H17]: the binding result in the assay with rat albumin and with rabbit albumin was “no binding” in each case.

As to SYAPCYFPGICWMGN (phage clone, Library HBC) [HBC-H8], the binding result with rat albumin and with rabbit albumin was “no binding” in each case.

Regarding REPASLVCYFEDICFVRAEA (phage clone, Library HB) [HB-H3], the binding result in the assay with rat albumin and with rabbit albumin was “no binding” throughout.

(Values after patent US20040253247A1 (Genentech, published 2004).)
